# Laboratory results taken from patent publication US20040086941A1 (Takeda / Millennium, published 2004).
# Positions of bridges follow the written chain, without caps; N, C: chain ends. No end group written: not given here.
# B1: Des-[Asp1, Phe2, Asp3]-MCH (MCH(4-19)) (peptide)
# peptide: MLRCMLGRVYRPCWQV-OH
# modifications: disulfide 4-13; N-terminus assumed
# SMILES: CSCC[C@@H]1NC(=O)[C@@H](NC(=O)[C@H](CCCNC(=N)N)NC(=O)[C@H](CC(C)C)NC(=O)[C@@H](N)CCSC)CSSC[C@@H](C(=O)N[C@@H](Cc2c[nH]c3ccccc23)C(=O)N[C@@H](CCC(N)=O)C(=O)N[C@H](C(=O)O)C(C)C)NC(=O)[C@@H]2CCCN2C(=O)[C@H](CCCNC(=N)N)NC(=O)[C@H](Cc2ccc(O)cc2)NC(=O)[C@H](C(C)C)NC(=O)[C@H](CCCNC(=N)N)NC(=O)CNC(=O)[C@H](CC(C)C)NC1=O
# notes: also called amino terminal-truncated form of MCH; N-terminal truncated form
# Columns and labels:
# [1] = molecular target: T1, human receptor protein SLT (hSLT) (human, UniProt Q969V1 1-340); experiment: radioligand competition; [125I]-labeled MCH(4-19) on membrane fraction (30 ug/ml) of human SLT-expressing CHO cells, filtration
# T1 construct: Full-length human SLT expressed in CHO dhfr- cells; also called human SLT; CHO/hSLT cells
# Description: Receptor binding assay was performed using [¹²⁵I]-labeled MCH (4-19) prepared in REFERENCE EXAMPLE 3 using Bolton-Hunter reagent and the cell membrane fraction prepared from human SLT-expressing CHO cells.
# The cell membrane fraction prepared from human SLT-expressing CHO cells according to EXAMPLE 6 was diluted at various concentrations with the assay buffer (50 mM Tris-HCl, 5 mM EGTA (ethyleneglycol-bis(aminoethylether) tetraacetic acid), 5 mM magnesium acetate, 0.05% CHAPS, 0.1% BSA (bovine serum albumin), 0.25 mM PMSF (phenylmethylsulfonyl fluoride), 1 μg/ml pepstatin, 20 μg/ml leupeptin, pH 7.4). A 200 μl aliquot of each dilution was then dispensed in a polypropylene testing tube (Falcon, Inc., 2053). Two μl of DMSO and 2 μl of 20 nM [¹²⁵I]-labeled MCH (4-19) were added to the membrane fraction solution to determine the amount of total binding (TB), and 2 μl of a solution of 100 μM MCH in DMSO and 2 μl of […] [¹²⁵I]-labeled MCH (4-19) were added thereto to determine the amount of non-specific binding (NSB). After reaction at 25° C. for 60 minutes, the reaction solution was filtered with suction through a polyethyleneimine-treated glass filter (Whatman Co., GF-F). Following the filtration, the radioactivity of [¹²⁵I]-labeled MCH (4-19) remaining on the filter paper was measured with a γ-counter.
# As a result, the IC₅₀ value was approximately 20 nM (FIG. 4). […]
# [2] = molecular target: T1, human receptor protein SLT (hSLT); experiment: cell-based or functional assay
# T1 sequence (Q969V1 whole entry): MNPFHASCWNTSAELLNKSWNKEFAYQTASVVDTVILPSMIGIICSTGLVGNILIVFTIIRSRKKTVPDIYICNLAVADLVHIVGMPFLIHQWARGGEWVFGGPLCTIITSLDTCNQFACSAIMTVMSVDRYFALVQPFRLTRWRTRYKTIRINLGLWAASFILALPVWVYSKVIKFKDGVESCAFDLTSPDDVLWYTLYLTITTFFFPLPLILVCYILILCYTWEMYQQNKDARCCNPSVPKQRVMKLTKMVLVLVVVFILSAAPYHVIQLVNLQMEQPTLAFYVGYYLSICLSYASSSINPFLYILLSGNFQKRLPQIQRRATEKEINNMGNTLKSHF
Binder,IC50 [1],"release of [3H] arachidonic acid metabolite in human SLT-expressing CHO cells, EC50 [2]"
B1,3.3 nM,
"DFDMLRCMLGRVYRPCWQV (disulfide 7-16) [melanin-concentrating hormone, MCH (synthetic human MCH)]",~20 nM,0.57 nM
